Data from patent publication US8343490B2, “Monoclonal antibody SC104 and derivative thereof specifically binding to a sialyltetraosyl carbohydrate as a potential anti-tumor therapeutic agent” (Cephalon Australia Pty Ltd, priority 2004, dated 2013).
Several values for one entry are separate records, joined by “and”; a condition that tells them apart may be missing. Equal values may be shown once. Read-outs that look alike come from different tables or passages of the source.

What was measured:
colorectal tumours = assay: Binding to colorectal tumours (summary statement)
[1] = ELISA on tumour glycolipid extract; assay type: binding; conditions: FIG. 4
Method: (§1) • Binding to purified antigen preparations. […] Binding of SC104 mab was assayed by ELISA as described above.

[2] = system: pan caspase in C170 cells; assay: Pan caspase activation (FITC-FMK-vad, flow cytometry); assay type: cell-based; conditions: 30 μg/ml, up to 6 hrs; FIG. 17
Method: Pan caspase activation. 2×10^5 colorectal C170 cells were exposed to 30 μg/ml of SC104 for up to 6 hrs and pan caspase FITC-FMK-vad (caspACE FITC-vad-FMK, Promega, catalogue number G7462) employed to establish caspase activation. The cells were analysed by flow cytometry. Controls included a negative control murine antibody and a Fas antibody at 100 ng/ml.

C170 xenografts [3] = assay type: in vivo
Method: (§2) Prevention model. The colorectal tumour cell line, C170 was maintained in serial passage in nude mice. For therapy the mice were sacrificed and the tumours excised. The tumour was finely minced and […] pieces were implanted, under anaesthetic, subcutaneously into 30 male mice which had been randomly allocated to 4 experimental groups.
Mice were explanted with 3 mm^3 pieces of C170 xenografts. Groups of mice were treated with 5-FU/leucovorin (12.5 mg/Kg) by intravenous infusion on days 1, 3, 5, 7 and 28. On the same days mice were also injected intraperitonealy with 0.2 mg of SC104 mab. Control mice received either SC104 alone or control mouse IgG antibody with 5-FU/leucovorin. Tumour size was measured by callipers and tumour cross sectional area calculated on days 7, 9, 12, 14 and 16. Animals were weighed to assess the toxicity of treatment. At the termination of the experiment tumours were weighed to assess anti-tumour efficacy.

[4] = system: freshly disaggregated colorectal tumour cells; assay: Primary tumour binding, flow cytometry
Method: • Primary tumour binding. Tumour specimens were obtained at the time of colorectal cancer resection. Specimens were finely minced and disaggregated with 0.05% collagenase (Type IV, Boehringer Mannheim, Lewes, UK) for 20 min at 37° C. The tumour cell suspension was removed and washed 3 times in Hanks balanced salt solution (Gibco BRL, Paisley, UK). Fresh collagenase was added to the remaining tissue and it was reincubated for a further 20 min. This procedure was repeated twice before combining cells from all dissociations and resuspending them in Dulbecco's medium containing 20% fetal calf serum (Gibco). Cells were incubated for 1 hr at 4° C. with SC104 mab (1 μg). […] Normal mouse immunoglobulin was used as a negative control and this fluorescence was subtracted from the fluorescence obtained with SC104. […] Results are expressed as mean linear fluorescence (MLF). […] The percentage of epithelial cells is measured by staining of cytokeratin mab Cam 5.2. was only 22±13% (range 10-60). However, following forward angle light scatter gating to selectively analyse cells in the malignant cell size range 79±4% (range 69-86) of the cells analysed were epithelial. […] The percentage of leukocytes as measured by staining with the anti-CD45 mab F-10-89 in the total nucleate population was 74±16 (range 40-90). […]

C170 xenografts [5] = assay: C170 xenograft therapeutic model; assay type: in vivo, nude mice; conditions: administered therapeutically, after C170 xenograft implantation; FIG. 27
Method: as §2, with “Therapeutic” for “Prevention”
Mice were explanted with 3 mm^3 pieces of C170 xenografts. […] On the same days mice were also injected intraperitonealy with 0.2 mg of SC104 mab. Control mice received either SC104 alone or control mouse IgG antibody with 5FU/leucovorin. Tumour size was measured by callipers and tumour cross sectional area calculated on days 12, 16, 19 and 23.

[6] = system: SC104 antigen purified from sputum; assay: Cross-reaction of antigen purified from sputum with antibodies; assay type: binding; conditions: FIG. 13
Description: • SC104 antigen purification and characterisation. SC104 specific antigen was purified from sputum samples mixed in a 1:1 ratio with 0.1M pH 7.6 Tris 0.5% NP40. Briefly an immuno-affinity was produced cross linking SC104 S136A to Protein A Cl-6B sepharose using Dimethyl pimelimidate.2HCl as the covalent linker Results

normal colon = assay: Immunohistochemistry of normal colon (screening); assay type: binding; parameters: key: −: negative; +: minimal; 2+: strong; 3+: very strong
[7] = Blood group antigen ELISA, Lewis y; assay type: binding
Method: (§3) The Lewis ^y hapten and the type I and type II H blood group antigen (Sigma, Poole, Dorset) were dried microtitre plates by overnight incubation at 37° C. Binding of SC104 mab was assayed by ELISA as described above.

[8] = HPTLC immunostaining of commercially available lipid standards; assay type: binding; conditions: standards of Table 6 (lactosyl ceramide, Gb3, globoside, Forrsman, GM3, AGM1, GM1, GD3, GD1a, GD1b, GT1b)
Description: The SC104 antigen has been compared to a number of commercially available lipid standards. Examples of each standard were spotted onto HPTLC plates and developed in 50:40:10 chloroform:methanol:CaCl2 (0.5% w/v). Plates were also spotted with partially purified SC104 antigen. Migration of each standard was detected by iodine vapour staining and the location of each marked on the plate. Plates were then probed with SC104.

[9] = system: normal colonic extranuclear membranes; assay: ELISA on extranuclear membranes of normal colon; assay type: binding; conditions: one line per patient (1-7)
Method: • Tumour and normal membrane extract binding. Extranuclear extractions of colorectal and normal colonic membranes were produced and binding of SC104 was assayed by ELISA. Results

C170 tumour cells = assay: Annexin/PI dual colour flow cytometry; assay type: cell-based; conditions: concentration greater than 10 μg/ml; cells in suspension
Description: Annexin/PI. Tumour cells ([…]) or appropriate controls for 4 hr at room temperature could then also be stained with FITC labelled annexin and propidium iodide (Sigma, Poole, Dorset) and then analysed by dual colour flow cytometry.

[10] = system: C14 antigen (90 KDa glycoprotein purified from saliva); assay: ELISA on C14 antigen; assay type: binding; conditions: FIG. 4
Method: as §1

[11] = Blood group antigen ELISA, H type I; assay type: binding
Method: as §3

B1: SC104: mouse IgG1 monoclonal antibody specific for a sialyltetraosyl carbohydrate, raised by immunisation with colorectal cancer cell lines (antibody, V domains shown)
VH: DVQLQESGPDLVKPSQSLSLTCTVTGYSITSGYSWHWVRQFPGNKMEWMGHIHFSGRPTYNPSLSSRISITRDTSKNQFLLQLKFVTTEDTSTYFCARKGKGSDDGLNYWGQGISVTVSS
VL: ENVLTQSPVIMSASPGEKVTMTCSASSSLSYIHWYQQKSRTSPKLWIYDTSNLASGVPGRFSGSGSGNSYSLTISSMEAEDVATYYCFQGSEYPLTFGGGTKLEMT
colorectal tumours bound (colorectal tumours): 71% | binding to methanol/chloroform tumour glycolipid extract by ELISA [1]: A similar result was obtained | pan caspase activation [2]: activates pan caspases after 5 hrs | survival of mice (C170 xenografts [3]; Log Rank, FIG. 26b): significant improvement of survival | inhibition of tumour growth of freshly explanted tumours (C170 xenografts [3]; SC104 200 μg/dose ip, 5-FU/leucovorin at maximum tolerated dose, FIG. 26a): 50% | inhibition of tumour growth (C170 xenografts [3]; day 9): 32% | inhibition of tumour growth (C170 xenografts [3]; day 12): 44% | inhibition of tumour growth (C170 xenografts [3]; day 14): 54% | inhibition of tumour growth (C170 xenografts [3]; day 16): 62% | freshly disaggregated colorectal tumour cells bound strongly ([4]; FIG. 3): > 80% | mean antigen density ([4]; freshly disaggregated colorectal tumour cells): 4×10^5 antigens per cell | inhibition of tumour growth (C170 xenografts [5]): neither 5FU nor SC104 alone significantly inhibited growth | cross-reaction with antigen purified from sputum [6]: cross-react | Immunohistochemistry Normal colon (normal colon): + | Binding to blood group antigens by ELISA: Lewis ^y [7]: 0.057 OD 405 nm | recognition of lipid standards [8]: none of the standards were recognised by SC104 | Binding of SC104 mab to extranuclear membranes: Normal colon [9]: 0.217 and 0.042 and 0.066 and 0.035 and 0.139 and 0.001 and 0.068 | cells staining with PI (C170 tumour cells): 75% | cells staining with annexin (C170 tumour cells): 30% | cells staining with both annexin and PI (C170 tumour cells): 65% | binding to Lewis ^y/b expressing 90 KDa glycoprotein from saliva by ELISA [10]: bound | Binding to blood group antigens by ELISA: H blood group Type I [11]: 0.087 OD 405 nm
